According to publication PMC12692543:

Experiments:
[1] = target: rhFrizzled-4/FC Chimera (human) (UniProt Q9ULV1); assay: ELISA; rhFrizzled-4/Fc coated on a 96-well plate overnight; Norrin preparations AFTER denaturation and refolding with disulfide reshuffling (GSH/GSSG, 1 M arginine), serially diluted (0.8–500 ng/mL) in 1% BSA or casein in PBS, 2 h; detected with biotinylated Norrin antibody and streptavidin–HRP; result as percent of a comparison control (R&D Systems Norrin)
[2] = target: rhFrizzled-4/FC Chimera (human) (UniProt Q9ULV1); assay: ELISA; rhFrizzled-4/Fc coated on a 96-well plate overnight; Norrin preparations as extracted from bacteria, BEFORE refolding, serially diluted (0.8–500 ng/mL) in 1% BSA or casein in PBS, 2 h; detected with biotinylated Norrin antibody and streptavidin–HRP; result as percent of a comparison control (R&D Systems Norrin)

Substance | percent of expected binding activity relative to comparison control (R&D Systems Norrin) [1] | percent of expected binding activity relative to comparison control (R&D Systems Norrin) [2]
MBP-linker-Norrin^K86P (intact, uncut fusion protein from plasmid construct Nor-w-Linker) (from UniProt Q00604 25-133) | 94% | 7%
Norrin^K86P released from MBP-linker-Norrin by HRV3C protease (from UniProt Q00604 25-133) (natural protein) | 101% | 14%
